Non-standard residues stand in square brackets, D forms with d. No end group written: not given here. Hyp = O=C(O)[C@@H]1C[C@@H](O)CN1
Tests used:
[1] = biological target: SGN3^3xmut ectodomain (Tyr416, Phe438 and Tyr440 replaced by alanine) (Arabidopsis) (UniProt C0LGQ5); experiment: grating-coupled interferometry
[2] = biological target: GSO1/SGN3 ectodomain (residues 19 to 870) (Arabidopsis) (UniProt C0LGQ5); experiment: grating-coupled interferometry
[3] = biological target: GSO1/SGN3 ectodomain (residues 19 to 870) (Arabidopsis) (UniProt C0LGQ5); experiment: ITC
GSO1/SGN3 = experiment: Binding of CIF2^Hyp69,71 to GSO1/SGN3; design: species or system Arabidopsis; conditions: SI Appendix, Fig. S6
[4] = biological target: GSO2 ectodomain (recombinant) (Arabidopsis) (UniProt Q9FIZ3); experiment: grating-coupled interferometry
[5] = biological target: BAM1 ectodomain (Arabidopsis) (UniProt O49545); experiment: grating-coupled interferometry
[6] = biological target: PEPR1 ectodomain (Arabidopsis) (UniProt Q9SSL9); experiment: grating-coupled interferometry
EFR = experiment: GCI, SERK3 binding to EFR; design: species or system Arabidopsis
[7] = tested on: GSO1/SGN3 ectodomain (SGN3^WT) - CIF peptide; conditions: CIF-dependent interaction
FLS2 = experiment: GCI, SERK3 binding to FLS2; design: species or system Arabidopsis
[8] = biological target: GSO2 in the presence of CIF3; experiment: GCI coreceptor assay, SERK1 and SERK3 vs GSO2 in the presence of CIF3; design: species or system Arabidopsis; conditions: read-out: Kd of SERK binding to GSO2
[9] = biological target: FLS2 ectodomain (isolated) (Arabidopsis) (UniProt Q9FL28); experiment: grating-coupled interferometry
[10] = biological target: T1, GSO1/SGN3 ectodomain (SGN3^WT) - CIF peptide (Arabidopsis thaliana, UniProt C0LGQ5); conditions: in the absence of CIF peptide
T1 sequence (C0LGQ5 19-870): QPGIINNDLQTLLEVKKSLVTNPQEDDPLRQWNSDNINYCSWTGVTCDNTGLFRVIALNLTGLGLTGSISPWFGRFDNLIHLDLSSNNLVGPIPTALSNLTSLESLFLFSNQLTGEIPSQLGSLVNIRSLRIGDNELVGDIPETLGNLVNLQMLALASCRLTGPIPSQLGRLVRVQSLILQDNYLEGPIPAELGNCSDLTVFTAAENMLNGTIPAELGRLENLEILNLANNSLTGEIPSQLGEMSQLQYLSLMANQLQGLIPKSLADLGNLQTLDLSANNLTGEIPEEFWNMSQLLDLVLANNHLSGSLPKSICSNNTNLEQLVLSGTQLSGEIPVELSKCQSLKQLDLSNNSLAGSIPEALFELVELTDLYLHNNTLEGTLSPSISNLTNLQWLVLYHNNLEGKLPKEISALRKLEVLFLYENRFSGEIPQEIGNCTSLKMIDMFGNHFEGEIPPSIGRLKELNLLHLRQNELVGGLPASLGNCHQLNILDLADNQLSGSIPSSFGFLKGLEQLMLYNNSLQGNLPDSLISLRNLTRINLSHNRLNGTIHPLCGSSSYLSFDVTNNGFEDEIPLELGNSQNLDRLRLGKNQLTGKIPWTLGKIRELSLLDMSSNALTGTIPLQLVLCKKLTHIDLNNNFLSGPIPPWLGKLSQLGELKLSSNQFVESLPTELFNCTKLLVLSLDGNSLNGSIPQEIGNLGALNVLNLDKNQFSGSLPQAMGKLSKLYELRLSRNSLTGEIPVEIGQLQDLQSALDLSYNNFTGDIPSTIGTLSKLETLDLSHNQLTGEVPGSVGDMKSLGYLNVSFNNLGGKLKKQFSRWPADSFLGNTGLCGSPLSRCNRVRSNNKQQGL

[11] = biological target: FLS2 ectodomain (isolated) (Arabidopsis, UniProt Q9FL28 24-806); experiment: grating-coupled interferometry
Sequence of FLS2 ectodomain (isolated) (Q9FL28 24-806): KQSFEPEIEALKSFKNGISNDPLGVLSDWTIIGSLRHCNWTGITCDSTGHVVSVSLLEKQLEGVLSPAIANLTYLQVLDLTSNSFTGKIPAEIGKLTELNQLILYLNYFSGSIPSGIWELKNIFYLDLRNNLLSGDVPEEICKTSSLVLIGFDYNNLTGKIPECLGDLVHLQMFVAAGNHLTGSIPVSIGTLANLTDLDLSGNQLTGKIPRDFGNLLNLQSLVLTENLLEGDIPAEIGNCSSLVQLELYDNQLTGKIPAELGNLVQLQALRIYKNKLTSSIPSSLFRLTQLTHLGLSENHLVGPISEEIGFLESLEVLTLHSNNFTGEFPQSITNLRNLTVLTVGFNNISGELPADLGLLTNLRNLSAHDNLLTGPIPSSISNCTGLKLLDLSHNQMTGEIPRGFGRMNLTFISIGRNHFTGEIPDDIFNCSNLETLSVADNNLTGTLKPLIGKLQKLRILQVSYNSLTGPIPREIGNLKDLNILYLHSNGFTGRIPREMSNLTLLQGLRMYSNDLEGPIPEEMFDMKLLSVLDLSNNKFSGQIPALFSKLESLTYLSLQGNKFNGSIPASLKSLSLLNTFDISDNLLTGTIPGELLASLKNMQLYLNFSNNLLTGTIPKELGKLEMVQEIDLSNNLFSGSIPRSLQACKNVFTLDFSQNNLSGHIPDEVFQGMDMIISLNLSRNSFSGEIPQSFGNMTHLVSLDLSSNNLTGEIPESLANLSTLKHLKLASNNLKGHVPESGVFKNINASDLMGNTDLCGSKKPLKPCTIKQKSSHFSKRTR

Sequence of PEPR1 ectodomain (Arabidopsis) (Q9SSL9 29-769): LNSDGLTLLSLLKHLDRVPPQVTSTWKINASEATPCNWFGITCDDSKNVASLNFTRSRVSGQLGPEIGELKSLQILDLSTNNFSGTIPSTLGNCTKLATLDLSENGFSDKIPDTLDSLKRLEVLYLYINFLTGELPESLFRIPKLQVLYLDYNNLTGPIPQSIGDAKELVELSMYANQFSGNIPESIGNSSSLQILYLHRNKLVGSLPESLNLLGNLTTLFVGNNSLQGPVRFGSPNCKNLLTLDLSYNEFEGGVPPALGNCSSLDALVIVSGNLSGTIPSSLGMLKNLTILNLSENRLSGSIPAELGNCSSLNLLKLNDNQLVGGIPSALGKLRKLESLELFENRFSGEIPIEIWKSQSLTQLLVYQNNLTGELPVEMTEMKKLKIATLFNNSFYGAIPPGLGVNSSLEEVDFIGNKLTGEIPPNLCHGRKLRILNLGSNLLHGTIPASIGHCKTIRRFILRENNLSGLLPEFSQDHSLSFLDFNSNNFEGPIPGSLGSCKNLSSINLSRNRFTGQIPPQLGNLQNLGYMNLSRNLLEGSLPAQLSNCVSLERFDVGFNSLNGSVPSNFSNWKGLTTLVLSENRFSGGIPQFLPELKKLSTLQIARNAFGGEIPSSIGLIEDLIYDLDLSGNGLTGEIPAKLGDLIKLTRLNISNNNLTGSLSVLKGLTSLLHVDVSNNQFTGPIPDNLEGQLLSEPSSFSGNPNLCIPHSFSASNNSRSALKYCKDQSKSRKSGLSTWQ
Sequence of BAM1 ectodomain (Arabidopsis) (O49545 20-640): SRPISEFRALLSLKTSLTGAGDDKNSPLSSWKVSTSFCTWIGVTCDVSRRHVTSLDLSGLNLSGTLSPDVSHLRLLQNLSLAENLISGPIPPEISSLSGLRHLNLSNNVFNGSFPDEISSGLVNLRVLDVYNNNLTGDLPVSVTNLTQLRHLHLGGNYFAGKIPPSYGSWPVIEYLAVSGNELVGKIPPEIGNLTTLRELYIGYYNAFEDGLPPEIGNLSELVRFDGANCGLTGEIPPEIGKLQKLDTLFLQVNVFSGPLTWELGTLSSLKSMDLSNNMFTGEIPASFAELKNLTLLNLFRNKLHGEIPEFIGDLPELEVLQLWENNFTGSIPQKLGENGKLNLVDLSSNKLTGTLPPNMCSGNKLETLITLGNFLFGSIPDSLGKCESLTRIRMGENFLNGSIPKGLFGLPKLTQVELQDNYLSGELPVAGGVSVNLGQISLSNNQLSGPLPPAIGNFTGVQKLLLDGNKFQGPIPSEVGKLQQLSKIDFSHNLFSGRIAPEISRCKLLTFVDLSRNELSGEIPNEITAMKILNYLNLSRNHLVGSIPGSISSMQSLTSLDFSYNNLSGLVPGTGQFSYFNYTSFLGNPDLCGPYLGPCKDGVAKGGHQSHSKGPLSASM
Sequence of GSO2 ectodomain (recombinant) (Arabidopsis) (Q9FIZ3 23-876): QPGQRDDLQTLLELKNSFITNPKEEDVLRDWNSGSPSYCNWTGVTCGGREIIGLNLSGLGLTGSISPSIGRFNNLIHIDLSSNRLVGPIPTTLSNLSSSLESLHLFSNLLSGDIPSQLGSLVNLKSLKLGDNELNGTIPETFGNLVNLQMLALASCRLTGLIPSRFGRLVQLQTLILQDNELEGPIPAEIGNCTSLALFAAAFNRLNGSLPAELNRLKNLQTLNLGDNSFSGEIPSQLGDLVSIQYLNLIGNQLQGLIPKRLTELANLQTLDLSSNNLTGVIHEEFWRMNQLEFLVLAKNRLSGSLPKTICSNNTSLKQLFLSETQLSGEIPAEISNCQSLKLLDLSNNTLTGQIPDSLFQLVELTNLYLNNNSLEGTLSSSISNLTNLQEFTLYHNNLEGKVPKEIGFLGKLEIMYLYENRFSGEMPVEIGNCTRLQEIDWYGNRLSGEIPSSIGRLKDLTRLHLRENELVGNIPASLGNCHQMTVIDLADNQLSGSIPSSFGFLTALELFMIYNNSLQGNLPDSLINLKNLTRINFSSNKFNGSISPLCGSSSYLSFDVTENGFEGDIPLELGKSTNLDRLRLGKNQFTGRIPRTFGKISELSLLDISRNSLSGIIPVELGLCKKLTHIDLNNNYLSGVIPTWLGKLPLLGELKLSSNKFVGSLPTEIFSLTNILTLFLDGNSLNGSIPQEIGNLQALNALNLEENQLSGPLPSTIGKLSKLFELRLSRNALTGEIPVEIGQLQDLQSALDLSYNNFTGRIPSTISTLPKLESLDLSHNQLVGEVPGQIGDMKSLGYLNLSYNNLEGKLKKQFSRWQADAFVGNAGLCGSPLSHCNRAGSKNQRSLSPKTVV
Sequence of FLS2 ectodomain (isolated) (Arabidopsis) (Q9FL28 24-806): as the sequence (Q9FL28 24-806) above

CIF2 peptide, synthetic sTyr-containing (CIF2^WT) (from UniProt O65684 29-83)
fold reduction of CIF2 binding against wild-type GSO1/SGN3 [1]: 10 fold | Kd [2]: 2 nM | Kd [3]: 40 nM | stoichiometry N [3]: 1

CIF2^Hyp69,71: CIF2 with hydroxyprolines at positions 69 and 71 (GRSSILIYSQEDDHPEVVERRIHEHERILRMNSRDYGHSS[Hyp]K[Hyp]KLVRPPFKLIPN)
dissociation constant compared with CIF2^WT (GSO1/SGN3): very similar dissociation constants

CIF3 peptide, tyrosine sulfated (CIF3^WT)
Kd [4]: 4 nM | Kd [2]: 4 nM

CIF4 peptide (wild type)
Kd [3]: 300 nM | stoichiometry N [3]: 1

CLE9 peptide (12 amino acids)
Kd [5]: 1 nM

PEP1 danger signal peptide (23 amino acids)
Kd [6]: 100 nM

PEP2 danger signal peptide (23 amino acids) (from UniProt Q9LV88 74-109)
Kd [6]: 20000 nM

SERK3: recombinant LRR ectodomain of the SERK3 coreceptor kinase
affinity of SERK3 binding (EFR): low micromolar affinity | interaction of coreceptor candidate with GSO1/SGN3 in GCI assays [7]: interacts | affinity of SERK3 binding (FLS2): low micromolar affinity | Kd [8]: 20 to 80 nM

flg22 immune elicitor peptide
Kd [9]: 1500 nM

B1: SERK1: recombinant LRR ectodomain of the SERK1 coreceptor kinase (residues 24 to 213) (protein)
chain: ASANLEGDALHTLRVTLVDPNNVLQSWDPTLVNPCTWFHVTCNNENSVIRVDLGNAELSGHLVPELGVLKNLQYLELYSNNITGPIPSNLGNLTNLVSLDLYLNSFSGPIPESLGKLSKLRFLRLNNNSLTGSIPMSLTNITTLQVLDLSNNRLSGSVPDNGSFSLFTPISFANNLDLCGPVTSHPCPGS
SERK1 binding to SGN3 [10]: No SERK1 binding | Kd [8]: 20 to 80 nM

B2: SERK3 LRR ectodomain (receptor, Arabidopsis, UniProt Q94F62 26-225, looked up)
chain: NAEGDALSALKNSLADPNKVLQSWDATLVTPCTWFHVTCNSDNSVTRVDLGNANLSGQLVMQLGQLPNLQYLELYSNNITGTIPEQLGNLTELVSLDLYLNNLSGPIPSTLGRLKKLRFLRLNNNSLSGEIPRSLTAVLTLQVLDLSNNPLTGDIPVNGSFSLFTPISFANTKLTPLPASPPPPISPTPPSPAGSNRITG
binding result [11]: binds
